Results taken from patent EP2100620A1.

Experiments:
[1] = molecular target: HLA receptor A1 (HLA-A*0101), purified from transfected human cells (human); experiment: competitive binding assay: unlabeled test peptide against 5 nM 125I-labeled standard peptide on purified HLA with 1 uM b2m, size exclusion HPLC, 51 h incubation; conditions: remark: other sources report otherwise
[2] = molecular target: HLA receptor A11 (HLA-A*1101), purified from transfected human cells (human); experiment: competitive binding assay: unlabeled test peptide against 5 nM 125I-labeled standard peptide on purified HLA with 1 uM b2m, size exclusion HPLC, 68 h incubation

**Q.** With ISEYRHYCY (modifications not checked) [… (SEQ ID NO:70), HPV 16 E6 peptide] as the binder, how does the IC50 [1] read?
**A.** 49 nM

**Q.** For HTMLCMCCK (modifications not checked) [… (SEQ ID NO:122), HPV strain 18 E7 59-67], which IC50 [2] is on record?
**A.** 67 nM
